Test results from article PMC5612115.

Experiments:
His6-tagged sCD4 (D1-D2) = test: BLI
[1] = biological target: LT5.J4b12C SOSIP.664 trimeric Env (HIV-1 B/C recombinant, soluble gp140) (HIV-1); test: negative-stain EM

LT5.J4b12C SOSIP.664 trimeric Env (HIV-1 B/C recombinant, soluble gp140) (complex)
fold lower affinity than BG505 SOSIP.664 (His6-tagged sCD4 (D1-D2)): 3 fold | stoichiometry N [1]: 3
